This note sets out measurements from the supplement of paper PMC9170038.

This series has as its system MS2 coat protein. In words: apparent KD of MS2 coat protein; designed switch direction (-1 OFF switch, 1 ON switch): 1; higher = weaker reporter binding. The gist of the method: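 The buffer was Tris-HCl pH 7.5 with KCl, MgCl2, BSA, DTT, tRNA and Tween-20. In it, SNAP-549-labelled MS2 coat protein was titrated in doubling steps from 0.7 or 1.5 nM to 3 µM over chip-bound RNA switches transcribed by stalled E. coli RNA polymerase on Illumina chips. Apparent KD is the per-design median over clusters of curve fits to normalised fluorescence.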

The mark [1] stands for this setting: input ligand: microRNA oligo, concentration not stated.
[2] abbreviates: Eterna round: R95, input ligand: FMN 200 uM.
Setting [3] is: Eterna round: R95, input ligand: microRNA oligo, concentration not stated.
Setting [4] is: Eterna round: R95, input ligand: none.

On to “UGACACACGGCAGGAUAUCGUUAGCAAAGCUAACGAGAAGGGCCUCAUGUCGUGGAAACGUGACAUGAGGAUCACCCAUGUCGC [Omei SS(NG)1 Cv9] (Eterna round: R96, puzzle: Same State NG 1)”, for which the “apparent KD of MS2 coat protein” value is, setting by setting: (input ligand: FMN 200 uM) 272 nM; under setting [1], 27.3 nM; (input ligand: none) 58.5 nM.

Turning to “GCGAAGAGGUAAGGAUAUUCAUGGCGUAGACAUGAGGAUCACCCAUGUAGGAGACGAAUUAGAAGGGAGAAGGUACCAGGACGC [AK SSNG2-V2-17] (Eterna round: R96, puzzle: Same State NG 2)”, the “apparent KD of MS2 coat protein” value (input ligand: FMN 200 uM) worked out at 60.9 nM, the “apparent KD of MS2 coat protein” value under setting [1] is 101 nM and the “apparent KD of MS2 coat protein” value (input ligand: none) came to 187 nM.

With “AAUUUAAUACAUGAGGAUCACCCAUGUAAAUUAAUUAAGAUCUAGGAUAUCAGCUCGUUUAGAGCUGAGAAGGAGAUCACAUGU [SSNG3/19-B3] (Eterna round: R96, puzzle: Same State NG 3)”, the “apparent KD of MS2 coat protein” value under setting [1] came to 12.5 nM.

On to “GGCGUAUAAACAUGAGGAUCACCCAUGUAGCGGAGACGCAAUGAGGAUAUCGAUGGGUUUCCCGUCGAGAAGGCAUGGGUCGCC [JL SSNG3 3.93] (Eterna round: R96, puzzle: Same State NG 3)”, for which the “apparent KD of MS2 coat protein” value reads like this: (input ligand: FMN 200 uM) 17 nM; under setting [1], 79.9 nM; (input ligand: none) 105 nM.

In the case of “UUACAGUGCGGGUAGGAUAUGUAGGGUGGUACAUGAGGAUCACCCAUGUAUCCACCCUUCUACCGGCAGAAGGGCCUGUCACUGC [Enlaeror] (Eterna round: R96, puzzle: Same State 2)”, the “apparent KD of MS2 coat protein” value by setting is: (input ligand: FMN 200 uM) 17.2 nM; under setting [1], 9.64 nM; (input ligand: none) 17 nM.

For “AUACAUGAGGAUCACCCAUGUAAUUAAUUAAUUAAUAAGAUCUAGGAUAUCAGCUCGAAUAGAGCUGAGAAGGAGAUCACAUGU [SSNG3/21-B1] (Eterna round: R96, puzzle: Same State NG 3)”, the “apparent KD of MS2 coat protein” value under setting [1] worked out at 19.4 nM.

Consider “UGCUUCAUGUAAGGAUAUGCAGCCGUUUCGGCUGCAGAAGGUACUAUAAUACAUGAGGAUCACCCAUGUCUCUCGCAUUGCGGG [salish99_SSng1_r04_302] (Eterna round: R96, puzzle: Same State NG 1)”, for which the “apparent KD of MS2 coat protein” value runs as follows: (input ligand: FMN 200 uM) 91 nM; under setting [1], 118 nM; (input ligand: none) 184 nM.

In the case of “GCGCUCCAAGGAGCUGCGACAUGAGGAUCACCCAUGUAAUCACAGGAUAUGCGAUUCCGAAUUUUGCAGAAGGGUGAUAAGAAC [Asorila] (Eterna round: R96, puzzle: Same State NG 3)”, the “apparent KD of MS2 coat protein” value reads like this: (input ligand: FMN 200 uM) 482 nM; under setting [1], 491 nM; (input ligand: none) 241 nM.

Regarding “AGGUAACAUGAGGAUCACCCAUGUACCAAUAAUGCAGGAUAUCGACACGAAAAUACGUGUCGAGAAGGGCAUGAAA [SS1 MT 22] (Eterna round: R96, puzzle: Same State 1)”, the “apparent KD of MS2 coat protein” value by setting is: (input ligand: FMN 200 uM) 10.3 nM; under setting [1], 9.09 nM; (input ligand: none) 12.5 nM.

As to “GAGUGAUGGGUUAGUAACUGCUGGGAAGGACAUGAGGAUCACCCAUGUGAGUAACGAGCUUGUGCUCGUCUUAUAAG [JR_SHM208A_Sub022] (puzzle: Sensor for hsa-mir-208a)”, the “apparent KD of MS2 coat protein” value was determined as 388 nM under setting [2], 192 nM under setting [3] and 425 nM under setting [4].

Consider “GUAGCAUGCACCGAGGAUAUUCAUAUUAAAACAUGAGGAUCACCCAUGUAGGCCAAAAGGCCUUGGGAGAAGGCGGACAUGCUAC [Xeonanis - 21] (puzzle: Same State 2)”, for which the “apparent KD of MS2 coat protein” value is 23.5 nM under setting [2], 178 nM under setting [3] and 422 nM under setting [4].

“AUAAAACAUGAGGAUCACCCAUGUCAACAAAGUCGAGGAUAUGGGCAAUUAAAAUAAGAACCAGAAGGCGAAUAAU [salish99_ss1_r3_025] (puzzle: Same State 1)”: the “apparent KD of MS2 coat protein” value amounted to 26.4 nM under setting [2], 138 nM under setting [3] and 400 nM under setting [4].

Turning to “ACCCAAAGUAUAUGGGAACAAGCUUUUUAACAUGAGGAUCACCCAUGUGCUCGUCUUAUAAGCAGUCGAAAGACUGC [Sensor 100 - 7] (puzzle: Sensor for hsa-mir-208a)”, the “apparent KD of MS2 coat protein” value amounted to 65.1 nM under setting [2] and 69 nM under setting [4].

Consider “AGUCCAGCCUGAGCUGGACAAAAGCAUGUACAUGAGGAUCACCCAUGUCAUGUACAAGCUUUUAGCUCGUCUUAAAA [Mat - hsa-mir-208a - Mod of JL - D14] (puzzle: Sensor for hsa-mir-208a)”, for which the “apparent KD of MS2 coat protein” value under setting [2] stood at 455 nM, the “apparent KD of MS2 coat protein” value under setting [3] amounted to 14.6 nM and the “apparent KD of MS2 coat protein” value under setting [4] is 501 nM.

For “GUAAUAAAGGAAGGAUAUGGGUAAACGGGAAUCCCAGAAGGUCCACAUGAGGAUCACCCAUGUGGUCCCGAAACCAAGGGACCG [Cetibiza] (Eterna round: R96, puzzle: Same State NG 1)”, the “apparent KD of MS2 coat protein” value by setting is: (input ligand: FMN 200 uM) 53.1 nM; under setting [1], 19.3 nM; (input ligand: none) 48.7 nM.

For the sequence “CGGCGCUGUCGAGAGGAUAUGCGGUGAUGGACAUGAGGAUCACCCAUGUUAGCGAUAGCAUCACGGUAGAAGGCUCUACGGCUUG [Soteed Omei mod 21] (puzzle: Same State 2)”, the “apparent KD of MS2 coat protein” value under setting [3] turned out to be 31 nM.

Regarding “AAUUAAGAUUAAGGAUAUCACGUCGAUUAGACGUGAGAAGGUGAUCAUAACAUGAGGAUCACCCAUGUAUUACAUGAAUUAAUU [SSNG1/3-B2] (Eterna round: R96, puzzle: Same State NG 1)”, the “apparent KD of MS2 coat protein” value reads like this: (input ligand: FMN 200 uM) 132 nM; under setting [1], 113 nM; (input ligand: none) 118 nM.

Regarding “AUCCUACAUGAGGAUCACCCAUGUGACGCCUCAAUAGGAUAUCGGGCCCAAAAUCGGGCACGAGAAGGAUUGAAGC [Aveso] (puzzle: Same State 1)”, the “apparent KD of MS2 coat protein” value reads like this: under setting [2], 85.2 nM; under setting [3], 172 nM; under setting [4], 163 nM.

Regarding “GCGAUAUGAUGUUACAUGAGGAUCACCCAUGUAGCGAUAGCUAAGGAUAUUGGAAAGGGAGGAGACGAGAAGGUAGGAUCACGC [AK SSNG3-V2-23.1] (Eterna round: R96, puzzle: Same State NG 3)”, the “apparent KD of MS2 coat protein” value (input ligand: FMN 200 uM) was determined as 44.9 nM, the “apparent KD of MS2 coat protein” value under setting [1] came out at 15.7 nM and the “apparent KD of MS2 coat protein” value (input ligand: none) was determined as 36.1 nM.

As to “GUAAGUUUGAUGCUCGUCUCUCCGUACAGACAUGAGGAUCACCCAUGUAGUCGGGAAGUAGCCCGGCCAGUAUGGCC [Zaorve] (puzzle: Sensor for hsa-mir-208a)”, the “apparent KD of MS2 coat protein” value came to 18.1 nM under setting [2], 22.2 nM under setting [3] and 17.7 nM under setting [4].

For the sequence “GUCAGGCAAGCUUUUUUCUCGUAGUGUAAACAUGAGGAUCACCCAUGUGCUCGCCCUGGAUCUUUGGAUCGCGGAAA [Xeatesis] (puzzle: Sensor for hsa-mir-208a)”, the “apparent KD of MS2 coat protein” value was determined as 34.6 nM under setting [2], 19.8 nM under setting [3] and 36.5 nM under setting [4].

With “UUAAAACAUGAGGAUCACCCAUGUCAUCUAAGUCGAGGAUAUGGGAAUUAAUUAAUUAAACCAGAAGGCGAAUAUU [Mat - Same State 1 - D90] (puzzle: Same State 1)”, the “apparent KD of MS2 coat protein” value is, setting by setting: under setting [2], 38.6 nM; under setting [3], 439 nM; under setting [4], 543 nM.

For “GGUAUCGGCGCAGGAUAUGCUAUCCUUUGGGUAGCAGAAGGGUGAACAUGAGGAUCACCCAUGUAGGUGCCAGGGCGUGAGCCC [JL SSNG1 1.81] (Eterna round: R96, puzzle: Same State NG 1)”, the “apparent KD of MS2 coat protein” value reads like this: (input ligand: FMN 200 uM) 1130 nM; under setting [1], 147 nM; (input ligand: none) 444 nM.

For “UGGCUCAGACGAGGAUAUAUGCGAUCACAUGAGGAUCACCCAUGUCUCGAGCUUCGGCUCGAGGCAUAGAAGGUGUCUGAGCCU [SSNG2/4-C3] (Eterna round: R96, puzzle: Same State NG 2)”, the “apparent KD of MS2 coat protein” value (input ligand: FMN 200 uM) turned out to be 23.9 nM, the “apparent KD of MS2 coat protein” value under setting [1] worked out at 70.3 nM and the “apparent KD of MS2 coat protein” value (input ligand: none) was 94.7 nM.

Regarding “GUUACAUGAGGAUCACCCAUGUAUGUGUGGGAGUAAGUGUCUUAGGAUAUCUGUUAUUUAAUAUAAGAGAAGGAAGAUUGUUGU [JMF's solution 44] (Eterna round: R96, puzzle: Same State NG 3)”, the “apparent KD of MS2 coat protein” value (input ligand: FMN 200 uM) was found to be 123 nM, the “apparent KD of MS2 coat protein” value under setting [1] turned out to be 76.5 nM and the “apparent KD of MS2 coat protein” value (input ligand: none) worked out at 108 nM.

With “UGUUGUAUUACAGGAUAUCUAUGAUUUGUAUUUAGAGAAGGGUAUUCACAUGAGGAUCACCCAUGUAUAUACGAGGAAGUUGUG [JMF's solution 62] (Eterna round: R96, puzzle: Same State NG 1)”, the “apparent KD of MS2 coat protein” value (input ligand: FMN 200 uM) was found to be 67.5 nM, the “apparent KD of MS2 coat protein” value under setting [1] was found to be 48.5 nM and the “apparent KD of MS2 coat protein” value (input ligand: none) is 62.3 nM.

Consider “UAGAGAGGAAGCGAGGAUAUCGUGUGAGGUACAUGAGGAUCACCCAUGUUUGAUGUUGAGAGAGGCGAGAAGGCGCAGGAGAAAA [JR_SS2_Sub086] (puzzle: Same State 2)”, for which the “apparent KD of MS2 coat protein” value by setting is: under setting [2], 30.8 nM; under setting [3], 24.9 nM; under setting [4], 38.7 nM.

In the case of “GUUUCAUCGAAAGGAUAUGUAUUGAUUGCCAUUGCAGAAGGUUCUCAGACAUGAGGAUCACCCAUGUCAAGCGGAAACGUAGUA [Eternabot solution 37] (Eterna round: R96, puzzle: Same State NG 1)”, the “apparent KD of MS2 coat protein” value reads like this: (input ligand: FMN 200 uM) 20.1 nM; under setting [1], 15.4 nM; (input ligand: none) 47.6 nM.
